According to patent US12630600B2 (MEDIMMUNE LIMITED, priority 2022, dated 2026):
Starred links: 1 amine or outer side, 2 acyl side, 3 side chain; linkers in the order of their positions; H or OH if unused. Non-standard residues stand in square brackets, D forms with d. Groups on a side chain read outwards from the residue. No end group written: not given here. *: point of attachment. C20 diacid = O=C(O)CCCCCCCCCCCCCCCCCCC(=O)*; C18 diacid = O=C(O)CCCCCCCCCCCCCCCCC(=O)*; γGlu = O=C(O)[C@H](CCC(=O)[*:2])N[*:1]; αMeF = C[C@](N)(Cc1ccccc1)C(=O)O; AEEA = NCCOCCOCC(=O)O; Aib = CC(C)(N)C(=O)O

B1: Peptide 508 (peptide)
peptide: H[Aib]QGTFTSDVSK[αMeF]LESK([AEEA-AEEA-γGlu-C20 diacid])RAQDFVRWLVE[Aib]G-NH2
modifications: N-terminus assumed
SMILES: CC(C)C[C@H](NC(=O)[C@H](Cc1c[nH]c2ccccc12)NC(=O)[C@H](CCCNC(=N)N)NC(=O)[C@@H](NC(=O)[C@H](Cc1ccccc1)NC(=O)[C@H](CC(=O)O)NC(=O)[C@H](CCC(N)=O)NC(=O)[C@H](C)NC(=O)[C@H](CCCNC(=N)N)NC(=O)[C@H](CCCCNC(=O)COCCOCCNC(=O)COCCOCCNC(=O)CC[C@H](NC(=O)CCCCCCCCCCCCCCCCCCC(=O)O)C(=O)O)NC(=O)[C@H](CO)NC(=O)[C@H](CCC(=O)O)NC(=O)[C@H](CC(C)C)NC(=O)[C@](C)(Cc1ccccc1)NC(=O)[C@H](CCCCN)NC(=O)[C@H](CO)NC(=O)[C@@H](NC(=O)[C@H](CC(=O)O)NC(=O)[C@H](CO)NC(=O)[C@@H](NC(=O)[C@H](Cc1ccccc1)NC(=O)[C@@H](NC(=O)CNC(=O)[C@H](CCC(N)=O)NC(=O)C(C)(C)NC(=O)[C@@H](N)Cc1c[nH]cn1)[C@@H](C)O)[C@@H](C)O)C(C)C)C(C)C)C(=O)N[C@H](C(=O)N[C@@H](CCC(=O)O)C(=O)NC(C)(C)C(=O)NCC(N)=O)C(C)C
B2: Peptide 514 (peptide)
peptide: H[Aib]QGTFTSDVSK[αMeF]LDTK([AEEA-AEEA-γGlu-C18 diacid])AARDFVQWLLE[Aib]G-NH2
modifications: N-terminus assumed
SMILES: CC(C)C[C@H](NC(=O)[C@H](Cc1c[nH]c2ccccc12)NC(=O)[C@H](CCC(N)=O)NC(=O)[C@@H](NC(=O)[C@H](Cc1ccccc1)NC(=O)[C@H](CC(=O)O)NC(=O)[C@H](CCCNC(=N)N)NC(=O)[C@H](C)NC(=O)[C@H](C)NC(=O)[C@H](CCCCNC(=O)COCCOCCNC(=O)COCCOCCNC(=O)CC[C@H](NC(=O)CCCCCCCCCCCCCCCCC(=O)O)C(=O)O)NC(=O)[C@@H](NC(=O)[C@H](CC(=O)O)NC(=O)[C@H](CC(C)C)NC(=O)[C@](C)(Cc1ccccc1)NC(=O)[C@H](CCCCN)NC(=O)[C@H](CO)NC(=O)[C@@H](NC(=O)[C@H](CC(=O)O)NC(=O)[C@H](CO)NC(=O)[C@@H](NC(=O)[C@H](Cc1ccccc1)NC(=O)[C@@H](NC(=O)CNC(=O)[C@H](CCC(N)=O)NC(=O)C(C)(C)NC(=O)[C@@H](N)Cc1c[nH]cn1)[C@@H](C)O)[C@@H](C)O)C(C)C)[C@@H](C)O)C(C)C)C(=O)N[C@@H](CC(C)C)C(=O)N[C@@H](CCC(=O)O)C(=O)NC(C)(C)C(=O)NCC(N)=O
B3: Peptide 513 (peptide)
peptide: H[Aib]QGT[αMeF]TSDVSK[αMeF]LDTK([AEEA-AEEA-γGlu-C18 diacid])RARD[αMeF]VQWLLA[Aib]G-NH2
modifications: N-terminus assumed
SMILES: CC(C)C[C@H](NC(=O)[C@H](CC(C)C)NC(=O)[C@H](Cc1c[nH]c2ccccc12)NC(=O)[C@H](CCC(N)=O)NC(=O)[C@@H](NC(=O)[C@](C)(Cc1ccccc1)NC(=O)[C@H](CC(=O)O)NC(=O)[C@H](CCCNC(=N)N)NC(=O)[C@H](C)NC(=O)[C@H](CCCNC(=N)N)NC(=O)[C@H](CCCCNC(=O)COCCOCCNC(=O)COCCOCCNC(=O)CC[C@H](NC(=O)CCCCCCCCCCCCCCCCC(=O)O)C(=O)O)NC(=O)[C@@H](NC(=O)[C@H](CC(=O)O)NC(=O)[C@H](CC(C)C)NC(=O)[C@](C)(Cc1ccccc1)NC(=O)[C@H](CCCCN)NC(=O)[C@H](CO)NC(=O)[C@@H](NC(=O)[C@H](CC(=O)O)NC(=O)[C@H](CO)NC(=O)[C@@H](NC(=O)[C@](C)(Cc1ccccc1)NC(=O)[C@@H](NC(=O)CNC(=O)[C@H](CCC(N)=O)NC(=O)C(C)(C)NC(=O)[C@@H](N)Cc1c[nH]cn1)[C@@H](C)O)[C@@H](C)O)C(C)C)[C@@H](C)O)C(C)C)C(=O)N[C@@H](C)C(=O)NC(C)(C)C(=O)NCC(N)=O
B4: Peptide 510 (peptide)
peptide: H[Aib]QGTFTSDVSK[αMeF]LDTK([AEEA-AEEA-γGlu-C20 diacid])RARDFVRWLL[Aib]E-OH
modifications: N-terminus assumed
SMILES: CC(C)C[C@H](NC(=O)[C@H](Cc1c[nH]c2ccccc12)NC(=O)[C@H](CCCNC(=N)N)NC(=O)[C@@H](NC(=O)[C@H](Cc1ccccc1)NC(=O)[C@H](CC(=O)O)NC(=O)[C@H](CCCNC(=N)N)NC(=O)[C@H](C)NC(=O)[C@H](CCCNC(=N)N)NC(=O)[C@H](CCCCNC(=O)COCCOCCNC(=O)COCCOCCNC(=O)CC[C@H](NC(=O)CCCCCCCCCCCCCCCCCCC(=O)O)C(=O)O)NC(=O)[C@@H](NC(=O)[C@H](CC(=O)O)NC(=O)[C@H](CC(C)C)NC(=O)[C@](C)(Cc1ccccc1)NC(=O)[C@H](CCCCN)NC(=O)[C@H](CO)NC(=O)[C@@H](NC(=O)[C@H](CC(=O)O)NC(=O)[C@H](CO)NC(=O)[C@@H](NC(=O)[C@H](Cc1ccccc1)NC(=O)[C@@H](NC(=O)CNC(=O)[C@H](CCC(N)=O)NC(=O)C(C)(C)NC(=O)[C@@H](N)Cc1c[nH]cn1)[C@@H](C)O)[C@@H](C)O)C(C)C)[C@@H](C)O)C(C)C)C(=O)N[C@@H](CC(C)C)C(=O)NC(C)(C)C(=O)N[C@@H](CCC(=O)O)C(=O)O
B5: Peptide 512 (peptide)
peptide: H[Aib]QGT[αMeF]TSDVSK[αMeF]LDTK([AEEA-AEEA-γGlu-C18 diacid])RAQD[αMeF]VRWLLA[Aib]G-NH2
modifications: N-terminus assumed
SMILES: CC(C)C[C@H](NC(=O)[C@H](CC(C)C)NC(=O)[C@H](Cc1c[nH]c2ccccc12)NC(=O)[C@H](CCCNC(=N)N)NC(=O)[C@@H](NC(=O)[C@](C)(Cc1ccccc1)NC(=O)[C@H](CC(=O)O)NC(=O)[C@H](CCC(N)=O)NC(=O)[C@H](C)NC(=O)[C@H](CCCNC(=N)N)NC(=O)[C@H](CCCCNC(=O)COCCOCCNC(=O)COCCOCCNC(=O)CC[C@H](NC(=O)CCCCCCCCCCCCCCCCC(=O)O)C(=O)O)NC(=O)[C@@H](NC(=O)[C@H](CC(=O)O)NC(=O)[C@H](CC(C)C)NC(=O)[C@](C)(Cc1ccccc1)NC(=O)[C@H](CCCCN)NC(=O)[C@H](CO)NC(=O)[C@@H](NC(=O)[C@H](CC(=O)O)NC(=O)[C@H](CO)NC(=O)[C@@H](NC(=O)[C@](C)(Cc1ccccc1)NC(=O)[C@@H](NC(=O)CNC(=O)[C@H](CCC(N)=O)NC(=O)C(C)(C)NC(=O)[C@@H](N)Cc1c[nH]cn1)[C@@H](C)O)[C@@H](C)O)C(C)C)[C@@H](C)O)C(C)C)C(=O)N[C@@H](C)C(=O)NC(C)(C)C(=O)NCC(N)=O
B6: Peptide 509 (peptide)
peptide: H[Aib]QGTFTSDVSK[αMeF]LESK([AEEA-AEEA-γGlu-C20 diacid])RAQDFVRWLL[Aib]TE-OH
modifications: N-terminus assumed
SMILES: CC(C)C[C@H](NC(=O)[C@H](Cc1c[nH]c2ccccc12)NC(=O)[C@H](CCCNC(=N)N)NC(=O)[C@@H](NC(=O)[C@H](Cc1ccccc1)NC(=O)[C@H](CC(=O)O)NC(=O)[C@H](CCC(N)=O)NC(=O)[C@H](C)NC(=O)[C@H](CCCNC(=N)N)NC(=O)[C@H](CCCCNC(=O)COCCOCCNC(=O)COCCOCCNC(=O)CC[C@H](NC(=O)CCCCCCCCCCCCCCCCCCC(=O)O)C(=O)O)NC(=O)[C@H](CO)NC(=O)[C@H](CCC(=O)O)NC(=O)[C@H](CC(C)C)NC(=O)[C@](C)(Cc1ccccc1)NC(=O)[C@H](CCCCN)NC(=O)[C@H](CO)NC(=O)[C@@H](NC(=O)[C@H](CC(=O)O)NC(=O)[C@H](CO)NC(=O)[C@@H](NC(=O)[C@H](Cc1ccccc1)NC(=O)[C@@H](NC(=O)CNC(=O)[C@H](CCC(N)=O)NC(=O)C(C)(C)NC(=O)[C@@H](N)Cc1c[nH]cn1)[C@@H](C)O)[C@@H](C)O)C(C)C)C(C)C)C(=O)N[C@@H](CC(C)C)C(=O)NC(C)(C)C(=O)N[C@H](C(=O)N[C@@H](CCC(=O)O)C(=O)O)[C@@H](C)O
B7: Peptide 515 (peptide)
peptide: H[Aib]QGTFTSDVSK[αMeF]LDTK([AEEA-AEEA-γGlu-C20 diacid])AARDFVQWLLE[Aib]G-NH2
modifications: N-terminus assumed
SMILES: CC(C)C[C@H](NC(=O)[C@H](Cc1c[nH]c2ccccc12)NC(=O)[C@H](CCC(N)=O)NC(=O)[C@@H](NC(=O)[C@H](Cc1ccccc1)NC(=O)[C@H](CC(=O)O)NC(=O)[C@H](CCCNC(=N)N)NC(=O)[C@H](C)NC(=O)[C@H](C)NC(=O)[C@H](CCCCNC(=O)COCCOCCNC(=O)COCCOCCNC(=O)CC[C@H](NC(=O)CCCCCCCCCCCCCCCCCCC(=O)O)C(=O)O)NC(=O)[C@@H](NC(=O)[C@H](CC(=O)O)NC(=O)[C@H](CC(C)C)NC(=O)[C@](C)(Cc1ccccc1)NC(=O)[C@H](CCCCN)NC(=O)[C@H](CO)NC(=O)[C@@H](NC(=O)[C@H](CC(=O)O)NC(=O)[C@H](CO)NC(=O)[C@@H](NC(=O)[C@H](Cc1ccccc1)NC(=O)[C@@H](NC(=O)CNC(=O)[C@H](CCC(N)=O)NC(=O)C(C)(C)NC(=O)[C@@H](N)Cc1c[nH]cn1)[C@@H](C)O)[C@@H](C)O)C(C)C)[C@@H](C)O)C(C)C)C(=O)N[C@@H](CC(C)C)C(=O)N[C@@H](CCC(=O)O)C(=O)NC(C)(C)C(=O)NCC(N)=O

molecular target: human glucagon receptor (human, UniProt P47871); experiment: cell-based or functional assay

Row | Binder | cAMP production EC50 [nM]
1 | B1 | 2.8
2 | B2 | 1.37
3 | B3 | 1.34
4 | B4 | 0.118
5 | B5 | 2.31
6 | B6 | 3.02
7 | B7 | 2.66

molecular target: human GLP-1 receptor (human, UniProt P43220); experiment: cell-based or functional assay

Row | Binder | cAMP production EC50 [nM]
8 | B1 | 0.0679
9 | B2 | 0.0767
10 | B3 | 0.0938
11 | B4 | 0.176
12 | B5 | 0.159
13 | B6 | 0.594
14 | B7 | 0.297
